In patent US20230381334A1:
Non-standard residues stand in square brackets, D forms with d. No end group written: not given here.

These binders were tested against mouse anti V5 antibody (Thermo Scientific) (assay: ELISA: 1 ug/ml mouse anti V5 with increasing SADC, complexes captured on streptavidin via biotinylated SADC peptide, bound IgG detected with anti mouse IgG-HRP).

How did the EC50 turn out when IPNPLLGLDGGSGDYKDDDDKGK[BiotinAca]GC (peptide, part only; not given: haptoglobin scaffold, part only, also: bound to haptoglobin scaffold, attachment site not given here) [SADC with haptoglobin scaffold carrying tagged V5 peptide …-(BiotinAca)GC] was run?
Its EC50 is 0.0555 µg/mL.

Which EC50 does the source give for IPNPLLGLDGGSGDYKDDDDKGK[BiotinAca]GC (peptide, part only; not given: albumin scaffold, part only, also: bound to albumin scaffold, attachment site not given here) [SADC with albumin scaffold carrying tagged V5 peptide …-(BiotinAca)GC] here?
The EC50 was 0.0279 µg/mL.

With IPNPLLGLDGGSGDYKDDDDKGK[BiotinAca]GC (peptide, part only; not given: transferrin scaffold, part only, also: bound to transferrin scaffold, attachment site not given here) [SADC with transferrin scaffold carrying tagged V5 peptide …-(BiotinAca)GC] as the binder, how does the EC50 read?
Its EC50 is 0.007 µg/mL.
